Assay results taken from the supplement of paper PMC9112550, “Optimization of the antimicrobial peptide Bac7 by deep mutational scanning” (BMC Biology, 2022).

test system: Escherichia coli TOP10; assay: shrunken log2 fold change of peptide-encoding DNA abundance (4.5 h post-induction vs induction); higher = less antimicrobial activity (less host growth inhibition); conditions: time post-induction: 4.5 h; library: site-saturation at positions 5, 18, 19, 20
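Also: peptides expressed intracellularly from a pBAD plasmid library in pooled LB shake-flask culture, induced with 0.3% L-arabinose, DNA abundance read by NGS, three biological replicates, DESeq2 with apeglm shrinkage.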

Sequence	shrunken log2 fold change
RRIRFRPPRLPRPRPRPWVEPRP	-0.0273
RRIRFRPPRLPRPRPRPWVNPRP	-0.753
RRIRFRPPRLPRPRPRPWVSPRP	-0.272
RRIRFRPPRLPRPRPRPWWCPRP	-0.0371
RRIRFRPPRLPRPRPRPWWVPRP	0.00262
RRIRFRPPRLPRPRPRPWYPPRP	-0.321
RRIRFRPPRLPRPRPRPYEDPRP	-0.951
RRIRFRPPRLPRPRPRPYEHPRP	-0.0962
RRIRFRPPRLPRPRPRPYETPRP	-0.185
RRIRFRPPRLPRPRPRPYEVPRP	-0.12
RRIRFRPPRLPRPRPRPYFDPRP	-0.489
RRIRFRPPRLPRPRPRPYFNPRP	-1.04
RRIRFRPPRLPRPRPRPYGDPRP	-0.0819
RRIRFRPPRLPRPRPRPYGLPRP	-0.521
RRIRFRPPRLPRPRPRPYGQPRP	-0.101
RRIRFRPPRLPRPRPRPYLEPRP	-0.0738
RRIRFRPPRLPRPRPRPYMAPRP	-0.688
RRIRFRPPRLPRPRPRPYMKPRP	-0.858
RRIRFRPPRLPRPRPRPYPTPRP	-0.324
RRIRFRPPRLPRPRPRPYQRPRP	-0.238
RRIRFRPPRLPRPRPRPYSGPRP	-0.293
RRIRFRPPRLPRPRPRPYSRPRP	-0.187
RRIRFRPPRLPRPRPRPYTHPRP	-0.532
RRIRFRPPRLPRPRPRPYTYPRP	-0.141
RRIRFRPPRLPRPRPRPYVFPRP	-0.408

Sequence	shrunken log2 fold change
RRIRFRPPRLPRPRPRPYWPPRP	-0.336
RRIRFRPPRLPRPRPRPYWRPRP	-0.0769
RRIRFRPPRLPRPRPRPYYQPRP	-0.203
RRIRGRPPRLPRPRPRPAAPPRP	1.38
RRIRGRPPRLPRPRPRPAAVPRP	1.51
RRIRGRPPRLPRPRPRPACAPRP	1.13
RRIRGRPPRLPRPRPRPACFPRP	0.939
RRIRGRPPRLPRPRPRPACVPRP	0.81
RRIRGRPPRLPRPRPRPADSPRP	0.283
RRIRGRPPRLPRPRPRPAIIPRP	0.134
RRIRGRPPRLPRPRPRPAKCPRP	-0.0198
RRIRGRPPRLPRPRPRPALCPRP	0.925
RRIRGRPPRLPRPRPRPALHPRP	0.866
RRIRGRPPRLPRPRPRPAMNPRP	0.542
RRIRGRPPRLPRPRPRPAMPPRP	0.492
RRIRGRPPRLPRPRPRPANNPRP	0.138
RRIRGRPPRLPRPRPRPANYPRP	0.0041
RRIRGRPPRLPRPRPRPAPEPRP	1.34
RRIRGRPPRLPRPRPRPAPQPRP	1.15
RRIRGRPPRLPRPRPRPARDPRP	0.585
RRIRGRPPRLPRPRPRPARHPRP	0.664
RRIRGRPPRLPRPRPRPATAPRP	0.979
RRIRGRPPRLPRPRPRPAVYPRP	0.742
RRIRGRPPRLPRPRPRPAWRPRP	0.934
RRIRGRPPRLPRPRPRPAYAPRP	0.0503

Sequence	shrunken log2 fold change
RRIRGRPPRLPRPRPRPCANPRP	0.0504
RRIRGRPPRLPRPRPRPCCTPRP	1.31
RRIRGRPPRLPRPRPRPCCVPRP	0.751
RRIRGRPPRLPRPRPRPCEIPRP	0.128
RRIRGRPPRLPRPRPRPCGEPRP	0.931
RRIRGRPPRLPRPRPRPCGPPRP	1.29
RRIRGRPPRLPRPRPRPCHEPRP	0.492
RRIRGRPPRLPRPRPRPCHKPRP	0.121
RRIRGRPPRLPRPRPRPCHYPRP	0.0219
RRIRGRPPRLPRPRPRPCIIPRP	0.191
RRIRGRPPRLPRPRPRPCKQPRP	0.0431
RRIRGRPPRLPRPRPRPCKYPRP	-0.533
RRIRGRPPRLPRPRPRPCLSPRP	0.0424
RRIRGRPPRLPRPRPRPCMIPRP	0.235
RRIRGRPPRLPRPRPRPCMLPRP	0.336
RRIRGRPPRLPRPRPRPCMPPRP	-0.152
RRIRGRPPRLPRPRPRPCNFPRP	0.138
RRIRGRPPRLPRPRPRPCNHPRP	-0.402
RRIRGRPPRLPRPRPRPCNQPRP	-0.174
RRIRGRPPRLPRPRPRPCPQPRP	0.654
RRIRGRPPRLPRPRPRPCPWPRP	-0.149
RRIRGRPPRLPRPRPRPCQPPRP	-0.0639
RRIRGRPPRLPRPRPRPCRFPRP	0.116
RRIRGRPPRLPRPRPRPCRTPRP	0.225
RRIRGRPPRLPRPRPRPCVCPRP	0.617

Sequence	shrunken log2 fold change
RRIRGRPPRLPRPRPRPCYKPRP	-0.295
RRIRGRPPRLPRPRPRPDAMPRP	2.4
RRIRGRPPRLPRPRPRPDEHPRP	1.5
RRIRGRPPRLPRPRPRPDETPRP	0.349
RRIRGRPPRLPRPRPRPDFHPRP	-0.0976
RRIRGRPPRLPRPRPRPDFKPRP	0.386
RRIRGRPPRLPRPRPRPDGCPRP	0.792
RRIRGRPPRLPRPRPRPDGQPRP	0.175
RRIRGRPPRLPRPRPRPDHAPRP	0.217
RRIRGRPPRLPRPRPRPDKQPRP	0.0252
RRIRGRPPRLPRPRPRPDKRPRP	0.767
RRIRGRPPRLPRPRPRPDKTPRP	0.104
RRIRGRPPRLPRPRPRPDLFPRP	0.723
RRIRGRPPRLPRPRPRPDLHPRP	0.655
RRIRGRPPRLPRPRPRPDNAPRP	0.364
RRIRGRPPRLPRPRPRPDPEPRP	0.593
RRIRGRPPRLPRPRPRPDQCPRP	0.196
RRIRGRPPRLPRPRPRPDRRPRP	-0.12
RRIRGRPPRLPRPRPRPDSNPRP	-0.0604
RRIRGRPPRLPRPRPRPDVLPRP	0.246
RRIRGRPPRLPRPRPRPDVTPRP	1.31
RRIRGRPPRLPRPRPRPDWEPRP	0.166
RRIRGRPPRLPRPRPRPDWLPRP	0.963
RRIRGRPPRLPRPRPRPDYNPRP	-0.12
RRIRGRPPRLPRPRPRPEAAPRP	3.27

Sequence	shrunken log2 fold change
RRIRGRPPRLPRPRPRPEAVPRP	2.27
RRIRGRPPRLPRPRPRPECFPRP	1.92
RRIRGRPPRLPRPRPRPEDCPRP	0.874
RRIRGRPPRLPRPRPRPEEHPRP	0.131
RRIRGRPPRLPRPRPRPEHVPRP	0.0775
RRIRGRPPRLPRPRPRPEHYPRP	-0.0809
RRIRGRPPRLPRPRPRPEIYPRP	0.26
RRIRGRPPRLPRPRPRPEKWPRP	-0.0809
RRIRGRPPRLPRPRPRPELAPRP	2
RRIRGRPPRLPRPRPRPELWPRP	2.06
RRIRGRPPRLPRPRPRPEPDPRP	1.27
RRIRGRPPRLPRPRPRPEPFPRP	0.218
RRIRGRPPRLPRPRPRPEPRPRP	1.35
RRIRGRPPRLPRPRPRPEQCPRP	0.0643
RRIRGRPPRLPRPRPRPEQRPRP	0.926
RRIRGRPPRLPRPRPRPEQWPRP	0.346
RRIRGRPPRLPRPRPRPERKPRP	0.92
RRIRGRPPRLPRPRPRPESFPRP	0.0921
RRIRGRPPRLPRPRPRPESGPRP	1.12
RRIRGRPPRLPRPRPRPESRPRP	0.831
RRIRGRPPRLPRPRPRPEVCPRP	0.955
RRIRGRPPRLPRPRPRPEVFPRP	1.38
RRIRGRPPRLPRPRPRPEVKPRP	0.0386
RRIRGRPPRLPRPRPRPEVPPRP	0.434
RRIRGRPPRLPRPRPRPEWTPRP	1.27

Sequence	shrunken log2 fold change
RRIRGRPPRLPRPRPRPFAWPRP	0.573
RRIRGRPPRLPRPRPRPFAYPRP	0.184
RRIRGRPPRLPRPRPRPFDDPRP	0.0195
RRIRGRPPRLPRPRPRPFDEPRP	0.294
RRIRGRPPRLPRPRPRPFFKPRP	0.186
RRIRGRPPRLPRPRPRPFGDPRP	0.0154
RRIRGRPPRLPRPRPRPFGYPRP	-0.0838
RRIRGRPPRLPRPRPRPFHTPRP	-0.161
RRIRGRPPRLPRPRPRPFIPPRP	-0.429
RRIRGRPPRLPRPRPRPFKCPRP	-0.307
RRIRGRPPRLPRPRPRPFKEPRP	-0.0428
RRIRGRPPRLPRPRPRPFNVPRP	-0.101
RRIRGRPPRLPRPRPRPFPAPRP	0.757
RRIRGRPPRLPRPRPRPFPHPRP	0.155
RRIRGRPPRLPRPRPRPFPMPRP	0.533
RRIRGRPPRLPRPRPRPFQDPRP	-0.000102
RRIRGRPPRLPRPRPRPFQEPRP	0.0152
RRIRGRPPRLPRPRPRPFQNPRP	0.31
RRIRGRPPRLPRPRPRPFRGPRP	-0.0655
RRIRGRPPRLPRPRPRPFRKPRP	-0.0984
RRIRGRPPRLPRPRPRPFRYPRP	0.0984
RRIRGRPPRLPRPRPRPFSAPRP	0.0503
RRIRGRPPRLPRPRPRPFSYPRP	0.0924
RRIRGRPPRLPRPRPRPFWCPRP	-0.0505
RRIRGRPPRLPRPRPRPGCLPRP	1.01
